From PMC10385607

Target: Human ALCAM (28–501)-6xhistidine tag (human) (UniProt Q13740)
Assay: ELISA; competition with CD6-Fc

Chain of Human ALCAM (28–501)-6xhistidine tag (human) (Q13740 28-501): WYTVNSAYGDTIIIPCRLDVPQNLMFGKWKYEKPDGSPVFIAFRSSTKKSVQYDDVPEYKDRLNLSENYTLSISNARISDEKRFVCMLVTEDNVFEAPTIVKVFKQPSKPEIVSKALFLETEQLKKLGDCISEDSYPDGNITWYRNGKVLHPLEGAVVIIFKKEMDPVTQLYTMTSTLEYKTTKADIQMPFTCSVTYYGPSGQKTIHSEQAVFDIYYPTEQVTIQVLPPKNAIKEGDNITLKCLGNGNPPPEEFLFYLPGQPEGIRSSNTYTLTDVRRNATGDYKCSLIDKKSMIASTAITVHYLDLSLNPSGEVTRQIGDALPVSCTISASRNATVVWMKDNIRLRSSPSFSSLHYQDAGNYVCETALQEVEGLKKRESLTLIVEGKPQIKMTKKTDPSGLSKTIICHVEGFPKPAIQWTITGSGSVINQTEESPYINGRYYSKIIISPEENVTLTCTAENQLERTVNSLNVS

- IC50: 5.63 nM
Substance: mini-ab V2D7 (from UniProt P03069)
